Data on ten molecules can be found in US20200173986A1 (HUGEL, published 2020).

The target of assay [1] is T1, recombinant GST-SNAP25197 (UniProt P60880 1-197).
T1 construct: not shown: glutathione S-transferase (GST) tag
Put plainly: direct ELISA; signal on GST-SNAP25197 against GST-SNAP25FL as reference. For orientation: ELISA stands for enzyme-linked immunosorbent assay.

The target in a further assay is T2, recombinant GST-SNAP25FL (UniProt P60880 1-206).
T2 construct: also called GST-SANP25FL; not shown: glutathione S-transferase (GST) tag
T2 sequence (P60880 whole entry): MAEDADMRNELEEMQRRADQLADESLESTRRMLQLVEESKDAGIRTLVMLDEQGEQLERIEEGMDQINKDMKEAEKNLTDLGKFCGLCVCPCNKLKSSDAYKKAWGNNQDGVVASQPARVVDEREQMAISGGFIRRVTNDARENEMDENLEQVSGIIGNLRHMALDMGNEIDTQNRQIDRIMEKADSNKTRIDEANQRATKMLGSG
Put plainly: BLI (Octet Red96); IgG on AMC biosensor, GST-SNAP25FL as analyte; KD from a tentative koff limit. (In general: BLI is a label-free optical method that tracks binding on a fibre tip over time.)

The target in assay [2] is T1, recombinant GST-SNAP25197. Put plainly: BLI (Octet Red96); anti-GST biosensor dipped in 125 nM GST-SNAP25197, IgG as analyte.
In assay [3] the target is T1, recombinant GST-SNAP25197. Put plainly: BLI (Octet Red96); anti-GST biosensor dipped in 250 nM GST-SNAP25197, IgG as analyte.
The target in assay [4] is T1, recombinant GST-SNAP25197. Put plainly: BLI (Octet Red96); IgG on AMC biosensor, GST-SNAP25197 as analyte; koff is the instrument's lowest limit, tentatively given.

Where a chain is given by its changes, count along the chain named.

T1 sequence (P60880 1-197): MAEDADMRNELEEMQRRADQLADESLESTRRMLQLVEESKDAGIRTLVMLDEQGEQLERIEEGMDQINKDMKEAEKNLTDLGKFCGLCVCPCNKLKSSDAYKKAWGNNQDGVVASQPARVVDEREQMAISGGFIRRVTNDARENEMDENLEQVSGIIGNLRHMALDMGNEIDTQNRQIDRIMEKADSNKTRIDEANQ

B1: D2 IgG (antibody, V domains shown)
VH: DVKLQESGPGLVKPSQSLSLTCSVTGYSITSGYYWNWIRQFPGNKLEWMGYIRYDGSNNYNPSLKNRISITRDTSKNQFFLKLNSVTTEDTASYYCARDRDSSYYFDYWGQGTALTVSS
VL: DIVMTQSSSYLSVSLGGRVTITCKASDHINNWLAWYQQKPGNAPRLLISDTTSLETGVPSRFSGSGSGKDYTLSITSLQTEDVATYYCQQYWSAPPTFGGGTKLEIK
On to B1, for which, in assay [1], the “Ratio197/206 (A450 with SNAP25197 to A450 with SNAP25FL)” value was found to be 0.03 ratio.

B2: B4 IgG (antibody, V domains shown)
VH: EVKLVESGGGLVKPGGSLKLSCAASGFTFSNYGMSWVRQTPEKRLEWVATISSGGSYTYYPDSVKGRFTISRDNAKNTLYLQMSSLRSEDTAMYYCARHEGGGNPYFDYWGQGTTLTVSS
VL: DVLMTQTPLSLPVSLGDQASISCRSSQSLVHSNGNTYLHWYLQKPGQSPKLLIYKVSNRFSGVPDRFSGSGSGTDFTLKISRVEAEDLGVYFCSQNTLVPWTFGGGTKLEIK
notes: also called B4 IgG1; clone 4
As a reminder, the Kd is the free concentration of one partner at which half of the binding sites on the other are occupied at equilibrium, for simple one-to-one binding. For the molecule B2, the “Ratio197/206 (A450 with SNAP25197 to A450 with SNAP25FL)” value in assay [1] is 0.83 ratio. The dissociation constant Kd with recombinant GST-SNAP25FL was ≤ 1.05 pM.

B3: D3 IgG (antibody, V domains shown)
VH: EVQLEESGGGLVQPGGSLKLSCAASGFTFSNYGMSWVRQTPDKRLELVATINSNGGTTYYPDSVKGRFTISRDNAKNTLYLQMSSLKSEDSAMYYCARDRDAMDYWGQGTSVTVSS
VL: B2 VL with L29I, H31N, N33H, H39E, F92Y, S94F, N96G, T97S, L98H
For B3, the “Ratio197/206 (A450 with SNAP25197 to A450 with SNAP25FL)” value in assay [1] was 12.9 ratio.

B4: C7 IgG (antibody, V domains shown)
VH: QVQLVETGGGLVQPKGSLKLSCAASGFTFNTNAMNWVRQAPGKGLEWVARIRSKSNNYATYYADSVKDRFTISRDDSQSLLYLQMNNLKTEDTAMYYCVYGRSYGGLSYWGQGTLVTVSA
VL: DIVMTQSPASLAVSLGQRATISCRASKSVSSSGYSYMHWYQQKPGQPPKLLIYLASNLESGVPARFSGSGSGTDFTLNIHPVEEEDAATYYCQHSRELPLTFGAGTKLELK
notes: also called C7 IgG2a
Broadly, the koff is a measure of how fast the partners let go of each other. As to B4, the results for the Kd in assay [2] and in assay [3] were 19.3 nM and 4.41 nM, respectively. In addition, the results for the off-rate constant (koff) in assay [2], in assay [3] and in assay [4] were 0.00494 s⁻¹, 0.00122 s⁻¹ and ≤ 1e-07 s⁻¹, respectively. The “Ratio197/206 (A450 with SNAP25197 to A450 with SNAP25FL)” value in assay [1] worked out at 1040 ratio.

B5: C16 IgG (antibody, V domains shown)
VH: EVQLQQSGAELARPGASVQMSCKAFGYTFTNYTMHWVRQRPGQGLEWIGFINPSSDYTNYNQKFKDKATLSADKSSSTAYMQLSSLTSEDSAVYYCARRIFYNGRTYAAMDYWGQGTSVTVSS
VL: B4 VL
notes: also called C16 IgG1
With B5, the “Ratio197/206 (A450 with SNAP25197 to A450 with SNAP25FL)” value in assay [1] was found to be 996 ratio.

B6: C24 IgG (antibody, V domains shown)
VH: EVKLVESGGGLVQPKGSLKLSCAASGYTFNTYAMNWVRQAPGKGLEWVARIRSKSNNYTTYYADSVKDRFTISRDDSQSMLYLQINNLKTEDTAMYYCVGQILYYYVGSPAWFAYWGQGTLVTVSA
VL: B4 VL with S31T, Y53F, L100W, A104G, L110I
For B6, the “Ratio197/206 (A450 with SNAP25197 to A450 with SNAP25FL)” value in assay [1] was 973 ratio. The koff in assay [4] was ≤ 1e-07 s⁻¹.

B7: C4 IgG (antibody, V domains shown)
VH: DVKLQESGPGLVKPSQSLSLTCTVTGYSITSDYAWNWIRQFPGNKLEWMGYISYSVGTRYNPSLKSRISITRDTSKNQFFLLLKSVTNEDTATYFCARKGEYGFAYWGQGTLVTVSA
VL: B4 VL with S31T
For the molecule B7, the “Ratio197/206 (A450 with SNAP25197 to A450 with SNAP25FL)” value in assay [1] amounted to 919 ratio. Besides, in assay [4], the koff was ≤ 1e-07 s⁻¹.

B8: C14 IgG (antibody, V domains shown)
VH: B4 VH with Q1E, Q3K, T7S, N56D, Q78P, L80M, S108G
VL: B4 VL with M4L, S31T, M37V
With B8, in assay [1], the “Ratio197/206 (A450 with SNAP25197 to A450 with SNAP25FL)” value came to 953 ratio.

B9: D6 IgG (antibody, V domains shown)
VH: EVQLQQSGPELVKPGASVKISCKASGYTFTDYNMHWVKQSHGKSLEWIGYIYPYNGDTGYNQKFKSKATLTVDNSSSTAYMELRSLTSEDSAVYYCVRSGDYWGQGTTLTVSS
VL: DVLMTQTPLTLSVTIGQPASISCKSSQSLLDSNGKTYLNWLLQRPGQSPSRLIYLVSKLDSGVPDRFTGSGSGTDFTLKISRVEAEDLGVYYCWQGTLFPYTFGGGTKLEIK
With B9, the “Ratio197/206 (A450 with SNAP25197 to A450 with SNAP25FL)” value in assay [1] worked out at 0.02 ratio.

B10: B23 IgG (antibody, V domains shown)
VH: EVQLQQSGAELVRPGASVKLSCTASGINIKDYYMHWMKQRPEQDLEWIGWIDPGNGDAEYAPKFQGKATMTADTSSNTAYLQLSSLTSEDTAVYYCNEIAYWGQGTLVTVSA
VL: not shown
notes: also called B23 IgG1
As for B10, the “Ratio197/206 (A450 with SNAP25197 to A450 with SNAP25FL)” value in assay [1] came to 0.92 ratio. Moreover, the equilibrium dissociation constant (Kd) in the assay with recombinant GST-SNAP25FL was ≤ 1.04 pM.
